Assay results: patent US20110262445A1 (CEPHALON AUSTRALIA, published 2011)
Residue numbers refer to the chain shown, from its start.

T1: human IL-12 (human, UniProt P29460 23-328; P29459 23-219)
T1 construct: Recombinant (Peprotech); FLAG-tagged IL-12 in the flow cytometry assays, biotinylated in the IL-12Rβ2 assay; also called hIL-12
T1 sequence 1: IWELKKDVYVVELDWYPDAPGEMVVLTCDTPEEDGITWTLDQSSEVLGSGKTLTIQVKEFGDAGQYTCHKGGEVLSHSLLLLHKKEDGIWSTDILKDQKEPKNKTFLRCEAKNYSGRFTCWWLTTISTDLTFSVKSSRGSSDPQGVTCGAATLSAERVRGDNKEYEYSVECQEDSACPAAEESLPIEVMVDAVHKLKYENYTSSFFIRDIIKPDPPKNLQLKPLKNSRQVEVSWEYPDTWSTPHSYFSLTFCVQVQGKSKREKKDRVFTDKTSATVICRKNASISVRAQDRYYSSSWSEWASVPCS
T1 sequence 2: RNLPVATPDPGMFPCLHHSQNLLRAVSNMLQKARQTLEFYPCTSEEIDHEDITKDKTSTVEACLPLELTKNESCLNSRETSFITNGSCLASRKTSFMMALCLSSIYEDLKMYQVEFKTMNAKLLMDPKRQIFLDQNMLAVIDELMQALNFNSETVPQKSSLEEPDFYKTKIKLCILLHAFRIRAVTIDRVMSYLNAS

T2: human IL-23 (human, UniProt P29460 23-328; Q9NPF7 20-189)
T2 construct: Recombinant (Ebioscience); HIS-tagged in flow cytometry, biotinylated in some assays; also called hIL-23; rhIL-23
T2 sequence 1: T1 sequence 1
T2 sequence 2: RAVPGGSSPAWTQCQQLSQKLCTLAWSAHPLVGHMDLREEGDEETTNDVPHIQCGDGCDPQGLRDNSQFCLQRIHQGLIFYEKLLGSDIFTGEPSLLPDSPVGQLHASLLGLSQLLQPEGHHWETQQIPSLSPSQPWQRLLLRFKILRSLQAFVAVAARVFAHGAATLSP

B1: Antibody 60 (antibody, human IgG1, kappa, V domains shown)
VH: EVQLVQSGAEVKKPGATVKISCKASGYTFSDYYLHWVRQRPEKGLEWMGWIDPENGDTEYAPKFQGKVTITADTSTDTGYLELSSLRSEDTAVYYCAANKELRYFDVWGQGTLVTVSS
VL: DIQMTQSPSSVSASVGDRVTITCRASQSISINLHWYQQKPGKAPKLLIKFASQSISGVPSRFSGSGSGTDFSLTINSLQPEDFATYYCQQSNSFPLTFGGGTKVEIKR
B2: Antibody 72 (antibody, human IgG1, kappa, V domains shown)
VH: B1 VH with E42G, K67R
VL: B1 VL with S65Y, T85R
B3: Antibody 71 (antibody, human IgG1, kappa, V domains shown)
VH: B1 VH with R40A, E42G, K67R
VL: B1 VL with S65Y, T85R
B4: Antibody 64 (antibody, human IgG1, kappa, V domains shown)
VH: B1 VH with R40A, E42G
VL: B1 VL with K49Y, S65Y
B5: Antibody 74 (antibody, human IgG1, kappa, V domains shown)
VH: B1 VH with R40A, E42G
VL: B1 VL with S65Y, T85R
B6: Antibody 65 (antibody, human IgG1, kappa, V domains shown)
VH: B1 VH
VL: B1 VL with K49Y, S65Y
B7: Antibody 67 (antibody, human IgG1, kappa, V domains shown)
VH: B1 VH with E42G, K67R
VL: B1 VL with K49Y, T85R
B8: Antibody 62 (antibody, human IgG1, kappa, V domains shown)
VH: B1 VH with E42G, K67R
VL: B1 VL with K49Y, S65Y
B9: Antibody 70 (antibody, human IgG1, kappa, V domains shown)
VH: B1 VH
VL: B1 VL with K49Y, T85R
B10: Antibody 66 (antibody, human IgG1, kappa, V domains shown)
VH: B1 VH with R40A, E42G, K67R
VL: B1 VL with K49Y, T85R
B11: Antibody 73 (antibody, human IgG1, kappa, V domains shown)
VH: B1 VH with R40A, K67R
VL: B1 VL with S65Y, T85R
B12: Antibody 63 (antibody, human IgG1, kappa, V domains shown)
VH: B1 VH with R40A, K67R
VL: B1 VL with K49Y, S65Y
B13: Antibody 61 (antibody, human IgG1, kappa, V domains shown)
VH: B1 VH with R40A, E42G, K67R
VL: B1 VL with K49Y, S65Y
B14: Antibody 69 (antibody, human IgG1, kappa, V domains shown)
VH: B1 VH with R40A, E42G
VL: B1 VL with K49Y, T85R
B15: Antibody 141 (antibody, human IgG1, kappa)
heavy chain: not shown
light chain: DIQMTQSPSSVSASPGDRVTITCRASQSISINLHWYQQKPGKAPKLLIYFASQSISGVPSRFSGSGSGTDFSLTINSLQPEDFARYYCQQSNSFPLTFGGGTKVEIKRTVAAPSVFIFPPSDEQLKSGTASVVCLLNNFYPREAKVQWKVDNALQSGNSQESVTEQDSKDSTYSLSSTLTLSKADYEKHKVYACEVTHQGLSSPVTKSFNRGEC
B16: Antibody 143 (antibody, human IgG1, kappa, V domains shown)
VH: B1 VH with R40A, K67R
VL: B1 VL with G41H, K49Y, T85R
B17: Antibody 134 (antibody, human IgG1, kappa, V domains shown)
VH: B1 VH with R40A, K67R
VL: B1 VL with A43S, K49Y
B18: Antibody 145 (antibody, human IgG1, kappa, V domains shown)
VH: B1 VH with R40A, K67R
VL: B1 VL with A43S, K49Y, T85R
B19: Antibody 137 (antibody, human IgG1, kappa, V domains shown)
VH: B1 VH with R40A, K67R
VL: B1 VL with K49Y, Y87F
B20: Antibody 142 (antibody, human IgG1, kappa, V domains shown)
VH: B1 VH with R40A, K67R
VL: B1 VL with P40S, K49Y, T85R
B21: Antibody 144 (antibody, human IgG1, kappa, V domains shown)
VH: B1 VH with R40A, K67R
VL: B1 VL with K42E, K49Y, T85R
B22: Antibody 135 (antibody, human IgG1, kappa, V domains shown)
VH: B1 VH with R40A, K67R
VL: B1 VL with K49Y, V58I
B23: Antibody 130 (antibody, human IgG1, kappa)
heavy: not shown
light: B15 light chain with R85T
B24: Antibody 147 (antibody, human IgG1, kappa, V domains shown)
VH: B1 VH with R40A, K67R
VL: B1 VL with K49Y, P80T, T85R
B25: Antibody 131 (antibody, human IgG1, kappa, V domains shown)
VH: B1 VH with R40A, K67R
VL: B1 VL with P40S, K49Y
B26: Antibody 132 (antibody, human IgG1, kappa, V domains shown)
VH: B1 VH with R40A, K67R
VL: B1 VL with G41H, K49Y
B27: Antibody 133 (antibody, human IgG1, kappa, V domains shown)
VH: B1 VH with R40A, K67R
VL: B1 VL with K42E, K49Y
B28: Antibody 146 (antibody, human IgG1, kappa, V domains shown)
VH: B1 VH with R40A, K67R
VL: B1 VL with K49Y, V58I, T85R
B29: Antibody 140 (antibody, human IgG1, kappa)
heavy: not shown
light: B15 light chain with S14T, P15V
B30: Antibody 148 (antibody, human IgG1, kappa, V domains shown)
VH: B1 VH with R40A, K67R
VL: B1 VL with K49Y, T85R, Y87F

biological target: T1, human IL-12; assay: ELISA, coated IL-12
How it was run: (§1)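 Each value is an absorbance measuring binding. Plates (Maxisorp) carried cytokine coated at 1 μg/mL in carbonate buffer pH 9.6 overnight at 4° C, were blocked with 1% BSA in PBS for 1 hour at 25° C, and received antibody titrations for 1 hour at 25° C. Detection used goat anti-human IgG or anti-murine immunoglobulin HRP at 1:2000 for 1 hour, then TMB stopped with 1M HCl, with absorbance taken at 450 nm (reference 620 nm).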

Row | binding result | Binder
1 | binds | B1
2 | binds | B2
3 | binds | B3
4 | binds | B4
5 | binds | B5
6 | binds | B6
7 | binds | B7
8 | binds | B8
9 | binds | B9
10 | binds | B10
11 | binds | B11
12 | binds | B12
13 | binds | B13
14 | binds | B14

biological target: T2, human IL-23; assay: ELISA, coated IL-23
How it was run: as §1

Row | binding result | Binder
15 | binds | B15
16 | binds | B16
17 | binds | B17
18 | binds | B18
19 | binds | B19
20 | binds | B20
21 | binds | B21
22 | binds | B22
23 | binds | B23
24 | binds | B24
25 | binds | B25
26 | binds | B26
27 | binds | B27
28 | binds | B28
29 | binds | B29
30 | binds | B30

biological target: T2, human IL-23; assay: ELISA, coated IL-23; remark: another data set of the same source
How it was run: as §1

Row | binding result | Binder
31 | binds | B1
32 | binds | B2
33 | binds | B3
34 | binds | B4
35 | binds | B5
36 | binds | B6
37 | binds | B7
38 | binds | B8
39 | binds | B9
40 | binds | B10
41 | binds | B11
42 | binds | B12
43 | binds | B13
44 | binds | B14

biological target: T1, human IL-12; assay: ELISA, coated IL-12; remark: another data set of the same source
How it was run: as §1

Row | binding result | Binder
45 | binds | B15
46 | binds | B16
47 | binds | B17
48 | binds | B18
49 | binds | B19
50 | binds | B20
51 | binds | B21
52 | binds | B22
53 | binds | B23
54 | binds | B24
55 | binds | B25
56 | binds | B26
57 | binds | B27
58 | binds | B28
59 | binds | B29
60 | binds | B30
